Reference: patent US20130316022A1, “METHOD TO ENHANCE ANTIMICROBIAL ACTIVITY BY INCREASING pH” (University of Iowa Research Foundation, priority 2012, published 2013)

B1: lysozyme (protein, UniProt P61626 19-148, looked up)
Lysozyme C: KVFERCELARTLKRLGMDGYRGISLANWMCLAKWESGYNTRATNYNAGDRSTDYGIFQINSRYWCNDGKTPGAVNACHLSCSALLQDNIADAVACAKRVVRDPQGIRAWVAWRNRCQNRDVRQYVQGCGV
notes: endogenous ASL antimicrobial protein, tested at 1.25 mg/ml
B2: lactoferrin (protein, UniProt P02788 20-710, looked up)
Lactotransferrin: GRRRSVQWCAVSQPEATKCFQWQRNMRKVRGPPVSCIKRDSPIQCIQAIAENRADAVTLDGGFIYEAGLAPYKLRPVAAEVYGTERQPRTHYYAVAVVKKGGSFQLNELQGLKSCHTGLRRTAGWNVPIGTLRPFLNWTGPPEPIEAAVARFFSASCVPGADKGQFPNLCRLCAGTGENKCAFSSQEPYFSYSGAFKCLRDGAGDVAFIRESTVFEDLSDEAERDEYELLCPDNTRKPVDKFKDCHLARVPSHAVVARSVNGKEDAIWNLLRQAQEKFGKDKSPKFQLFGSPSGQKDLLFKDSAIGFSRVPPRIDSGLYLGSGYFTAIQNLRKSEEEVAARRARVVWCAVGEQELRKCNQWSGLSEGSVTCSSASTTEDCIALVLKGEADAMSLDGGYVYTAGKCGLVPVLAENYKSQQSSDPDPNCVDRPVEGYLAVAVVRRSDTSLTWNSVKGKKSCHTAVDRTAGWNIPMGLLFNQTGSCKFDEYFSQSCAPGSDPRSNLCALCIGDEQGENKCVPNSNERYYGYTGAFRCLAENAGDVAFVKDVTVLQNTDGNNNEAWAKDLKLADFALLCLDGKRKPVTEARSCHLAMAPNHAVVSRMDKVERLKQVLLHQQAKFGRNGSDCPDKFCLFQSETKNLLFNDNTECLARLHGKTTYEKYLGPQYVAGITNLKKCSTSPLLEACEFLRK
notes: endogenous ASL antimicrobial protein, tested at 4 mg/ml

Legend:
[1] = system: E. coli DH5a expressing luminescence plasmid pCGLS1; experiment: E. coli luminescence antibacterial assay, effect of pH; assay type: cell-based; details: pH values from 6.8-8.0 (FIG. 8)
Description: (§1) To assess the effect of pH on the antibacterial activity of lysozyme and lactoferrin, we used a luminescence assay of bacterial viability that has been described previously ^15. The bacteria used were S. aureus Xen29 (Caliper LifeSciences Bioware™, Hopkinton, Mass.) and E. coli DH5a (GIBCO BRL, Life Technologies, Grand Island, N.Y.) expressing a luminescence plasmid pCGLS1. E. coli were grown in Luria-Bertani medium containing ampicillin (100 μg/ml, to maintain the plasmid) at 30° C. with shaking. For S. aureus, kanamycin 10 μg/ml was used instead of ampicillin. Log phase bacteria were centrifuged and resuspended in 1% Tryptic Soy Broth medium with 10 mM HEPES titrated to pH values from 6.8-8.0. E. coli (5×10^6 CFU) or S. aureus (5×10^5 CFU) were incubated with the indicated concentrations of lysozyme or lactoferrin in 96-well plates (Optiplate-96, Perkin Elmer, Waltham, Mass.) in a total volume of 120 μl. Controls were the same conditions in the same plates, but without lysozyme or lactoferrin. After incubation at 30° C. for the indicated times, luminescence was measured with a luminometer (Spectra Max L, Molecular Devices, Sunnyvale, Calif.) and was reported as relative light units (RLU). A previous study^16 determined that reductions in luminescence have an excellent correlation with a decrease in CFU.

S. aureus Xen29 = experiment: S. aureus luminescence antibacterial assay, effect of pH; assay type: cell-based
Description: as §1

Molecule	effect of pH on E. coli killing [1]	relative luminescence compared to control (S. aureus Xen29; pH 6.8, 1.25 mg/ml lysozyme, 30 minutes)	relative luminescence compared to control (S. aureus Xen29; pH 7.2, 1.25 mg/ml lysozyme, 30 minutes)	relative luminescence compared to control (S. aureus Xen29; pH 7.6, 1.25 mg/ml lysozyme, 30 minutes)	relative luminescence compared to control (S. aureus Xen29; pH 8.0, 1.25 mg/ml lysozyme, 30 minutes)	relative luminescence compared to control (S. aureus Xen29; pH 6.8, 4 mg/ml lactoferrin, 60 minutes)	relative luminescence compared to control (S. aureus Xen29; pH 7.2, 4 mg/ml lactoferrin, 60 minutes)	relative luminescence compared to control (S. aureus Xen29; pH 7.6, 4 mg/ml lactoferrin, 60 minutes)	relative luminescence compared to control (S. aureus Xen29; pH 8.0, 4 mg/ml lactoferrin, 60 minutes)
B1	increasing pH increased S. aureus and E. coli killing	49.1 ± 3.4	43.5 ± 1.5	30.6 ± 2.3	23.4 ± 0.8	–	–	–	–
B2	increasing pH increased S. aureus and E. coli killing	–	–	–	–	85.0 ± 9.3	73.6 ± 8.2	60.8 ± 4.8	39.8 ± 5.0
